Data: publication PMC2196189 (The Journal of Cell Biology, 2001)
Blank lines part the entries; values can stand above or below the binder they belong to.

Legend:
GST–Nup60p = GST–Nup60p (S. cerevisiae, UniProt P39705 1-539); test: pull-down
[1] = target: T1, Kap95p–Kap60p heterodimers (recombinant) (S. cerevisiae, UniProt Q06142 1-861; Q02821 1-542); test: pull-down
T1 sequence (looked up) 1: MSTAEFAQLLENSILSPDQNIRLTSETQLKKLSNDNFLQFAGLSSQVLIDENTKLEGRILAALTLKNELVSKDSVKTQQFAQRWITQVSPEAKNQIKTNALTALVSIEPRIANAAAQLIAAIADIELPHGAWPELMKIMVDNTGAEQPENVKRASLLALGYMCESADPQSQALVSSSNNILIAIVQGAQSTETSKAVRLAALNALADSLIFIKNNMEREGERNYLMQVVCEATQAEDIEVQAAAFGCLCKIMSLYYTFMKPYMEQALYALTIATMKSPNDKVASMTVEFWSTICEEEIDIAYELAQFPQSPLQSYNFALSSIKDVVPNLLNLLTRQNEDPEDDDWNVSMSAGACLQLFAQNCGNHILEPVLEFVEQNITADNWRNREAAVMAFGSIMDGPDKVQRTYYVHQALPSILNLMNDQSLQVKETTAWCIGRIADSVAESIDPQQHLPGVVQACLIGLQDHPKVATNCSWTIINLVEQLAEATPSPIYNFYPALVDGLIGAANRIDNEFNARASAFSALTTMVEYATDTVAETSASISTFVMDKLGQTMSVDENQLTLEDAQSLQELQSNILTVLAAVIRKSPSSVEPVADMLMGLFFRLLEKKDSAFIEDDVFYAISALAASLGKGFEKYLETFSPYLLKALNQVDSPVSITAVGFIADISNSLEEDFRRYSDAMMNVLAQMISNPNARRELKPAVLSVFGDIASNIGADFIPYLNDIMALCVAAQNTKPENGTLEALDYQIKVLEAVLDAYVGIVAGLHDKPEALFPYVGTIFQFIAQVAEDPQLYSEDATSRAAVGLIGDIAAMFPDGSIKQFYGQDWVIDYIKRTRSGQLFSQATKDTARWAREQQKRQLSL
T1 sequence (looked up) 2: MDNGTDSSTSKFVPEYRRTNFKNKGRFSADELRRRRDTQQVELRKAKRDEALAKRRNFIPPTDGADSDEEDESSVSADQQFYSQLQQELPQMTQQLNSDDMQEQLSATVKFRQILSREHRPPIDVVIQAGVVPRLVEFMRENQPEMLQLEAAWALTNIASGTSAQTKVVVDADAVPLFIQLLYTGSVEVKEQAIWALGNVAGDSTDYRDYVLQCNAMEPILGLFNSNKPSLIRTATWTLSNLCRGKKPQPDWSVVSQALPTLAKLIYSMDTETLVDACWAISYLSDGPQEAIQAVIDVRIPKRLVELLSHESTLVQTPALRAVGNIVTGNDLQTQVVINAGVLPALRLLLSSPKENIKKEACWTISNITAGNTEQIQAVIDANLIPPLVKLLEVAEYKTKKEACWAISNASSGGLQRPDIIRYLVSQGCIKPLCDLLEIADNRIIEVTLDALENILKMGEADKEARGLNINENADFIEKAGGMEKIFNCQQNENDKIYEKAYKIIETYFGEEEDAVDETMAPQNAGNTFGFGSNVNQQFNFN

Kap95p (recombinant) = target: T2, Kap95p (recombinant) (S. cerevisiae, UniProt Q06142 1-861); test: pull-down
T2 sequence (looked up): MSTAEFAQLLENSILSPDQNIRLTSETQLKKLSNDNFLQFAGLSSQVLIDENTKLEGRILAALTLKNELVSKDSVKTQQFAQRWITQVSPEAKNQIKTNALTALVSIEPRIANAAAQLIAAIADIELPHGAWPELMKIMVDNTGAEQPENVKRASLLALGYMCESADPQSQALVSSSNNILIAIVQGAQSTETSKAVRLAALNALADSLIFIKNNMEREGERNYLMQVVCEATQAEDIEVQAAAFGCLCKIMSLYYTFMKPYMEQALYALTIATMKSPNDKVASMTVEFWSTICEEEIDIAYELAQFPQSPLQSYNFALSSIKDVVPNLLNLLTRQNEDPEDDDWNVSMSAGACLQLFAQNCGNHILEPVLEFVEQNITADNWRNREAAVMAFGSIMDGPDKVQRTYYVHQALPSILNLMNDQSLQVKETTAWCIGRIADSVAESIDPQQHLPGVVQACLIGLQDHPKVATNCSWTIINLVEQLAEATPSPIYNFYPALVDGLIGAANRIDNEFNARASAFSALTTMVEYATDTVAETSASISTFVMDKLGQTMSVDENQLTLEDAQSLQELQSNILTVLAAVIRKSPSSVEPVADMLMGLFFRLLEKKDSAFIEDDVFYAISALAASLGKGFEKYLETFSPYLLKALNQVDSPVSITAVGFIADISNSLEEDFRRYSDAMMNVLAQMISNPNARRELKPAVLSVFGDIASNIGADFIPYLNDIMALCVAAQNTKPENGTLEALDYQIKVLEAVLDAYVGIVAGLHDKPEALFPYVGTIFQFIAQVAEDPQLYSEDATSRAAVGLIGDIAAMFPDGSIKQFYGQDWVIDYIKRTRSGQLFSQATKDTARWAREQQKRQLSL

[2] = target: Nup2p (construct of the data-not-shown experiments not stated) (S. cerevisiae, UniProt P32499 1-720); test: radioligand binding
Nup2p (construct of the data-not-shown experiments not stated), sequence (P32499 whole entry): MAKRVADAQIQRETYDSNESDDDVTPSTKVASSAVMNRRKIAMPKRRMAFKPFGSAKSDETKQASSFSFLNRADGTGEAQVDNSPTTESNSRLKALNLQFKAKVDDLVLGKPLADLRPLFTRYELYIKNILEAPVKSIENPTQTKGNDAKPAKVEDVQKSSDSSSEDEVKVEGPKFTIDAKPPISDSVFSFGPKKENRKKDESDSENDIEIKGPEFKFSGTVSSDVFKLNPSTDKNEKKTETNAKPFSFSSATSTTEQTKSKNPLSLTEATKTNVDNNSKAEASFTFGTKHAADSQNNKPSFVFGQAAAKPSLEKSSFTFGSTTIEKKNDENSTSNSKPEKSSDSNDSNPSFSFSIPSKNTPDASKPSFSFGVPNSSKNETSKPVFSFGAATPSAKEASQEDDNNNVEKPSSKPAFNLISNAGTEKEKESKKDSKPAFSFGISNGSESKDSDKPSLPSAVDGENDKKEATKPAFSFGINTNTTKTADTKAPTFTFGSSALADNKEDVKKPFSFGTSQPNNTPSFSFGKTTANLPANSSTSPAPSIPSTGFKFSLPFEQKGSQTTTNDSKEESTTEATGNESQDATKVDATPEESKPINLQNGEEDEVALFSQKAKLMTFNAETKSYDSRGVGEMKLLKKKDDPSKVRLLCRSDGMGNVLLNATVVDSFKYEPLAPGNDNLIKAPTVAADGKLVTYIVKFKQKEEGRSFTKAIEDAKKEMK

B2: GST–Nup60p (aa 389–539) (domain or fragment, S. cerevisiae, UniProt P39705 389-539, looked up)
chain: GDKPPSSAFNFSFNTSRNVEPTENAYKSENAPSASSKEFNFTNLQAKPLVGKPKTELTKGDSTPVQPDLSVTPQKSSSKGFVFNSVQKKSRSNLSQENDNEGKHISASIDNDFSEEKAEEFDFNVPVVSKQLGNGLVDENKVEAFKSLYTF
- binding result [1]: binds

B5: Kap60p (recombinant) (natural protein, S. cerevisiae, UniProt Q02821 1-542, looked up)
chain: MDNGTDSSTSKFVPEYRRTNFKNKGRFSADELRRRRDTQQVELRKAKRDEALAKRRNFIPPTDGADSDEEDESSVSADQQFYSQLQQELPQMTQQLNSDDMQEQLSATVKFRQILSREHRPPIDVVIQAGVVPRLVEFMRENQPEMLQLEAAWALTNIASGTSAQTKVVVDADAVPLFIQLLYTGSVEVKEQAIWALGNVAGDSTDYRDYVLQCNAMEPILGLFNSNKPSLIRTATWTLSNLCRGKKPQPDWSVVSQALPTLAKLIYSMDTETLVDACWAISYLSDGPQEAIQAVIDVRIPKRLVELLSHESTLVQTPALRAVGNIVTGNDLQTQVVINAGVLPALRLLLSSPKENIKKEACWTISNITAGNTEQIQAVIDANLIPPLVKLLEVAEYKTKKEACWAISNASSGGLQRPDIIRYLVSQGCIKPLCDLLEIADNRIIEVTLDALENILKMGEADKEARGLNINENADFIEKAGGMEKIFNCQQNENDKIYEKAYKIIETYFGEEEDAVDETMAPQNAGNTFGFGSNVNQQFNFN
- Kd [2]: ~0.2 nM

Other lines, results leading:

- binding result (GST–Nup60p): binds
B1: Prp20p (natural protein)
chain: MVKRTVATNGDASGAHRAKKMSKTHASHIINAQEDYKHMYLSVQPLDIFCWGTGSMCELGLGPLAKNKEVKRPRLNPFLPRDEAKIISFAVGGMHTLALDEESNVWSWGCNDVGALGRDTSNAKEQLKDMDADDSSDDEDGDLNELESTPAKIPRESFPPLAEGHKVVQLAATDNMSCALFSNGEVYAWGTFRCNEGILGFYQDKIKIQKTPWKVPTFSKYNIVQLAPGKDHILFLDEEGMVFAWGNGQQNQLGRKVMERFRLKTLDPRPFGLRHVKYIASGENHCFALTKDNKLVSWGLNQFGQCGVSEDVEDGALVTKPKRLALPDNVVIRSIAAGEHHSLILSQDGDLYSCGRLDMFEVGIPKDNLPEYTYKDVHGKARAVPLPTKLNNVPKFKSVAAGSHHSVAVAQNGIAYSWGFGETYAVGLGPFEDDTEVPTRIKNTATQDHNIILVGCGGQFSVSGGVKLSDEDAEKRADEMDD

- binding result (Kap95p (recombinant)): binds
B3: GST–Nup60p (aa 188–388) (domain or fragment, S. cerevisiae, UniProt P39705 188-388, looked up)
chain: PTFNPKYDTSNASMNTTLGSIGSRKYSFNYSSLPSPYKTTVYRYSAAKKIPDTYTANTSAQSIASAKSVRSGVSKSAPSKKISNTAAALVSLLDENDSKKNNAASELANPYSSYVSQIRKHKRVSPNAAPRQEISEEETTVKPLFQNVPEQGEEPMKQLNATKISPSAPSKDSFTKYKPARSSSLRSNVVVAETSPEKKDG

- binding result (Kap95p (recombinant)): binds
B4: GST–Nup60p (aa 1–187) (domain or fragment, S. cerevisiae, UniProt P39705 1-187, looked up)
chain: MHRKSLRRASATVPSAPYRKQIISNAHNKPSLFSKIKTFFTQKDSARVSPRNNVANKQPRNESFNRRISSMPGGYFHSEISPDSTVNRSVVVSAVGEARNDIENKEEEYDETHETNISNAKLANFFSKKGNEPLSEIEIEGVMSLLQKSSKSMITSEGEQKSAEGNNIDQSLILKESGSTPISISNA
